Numbering of substitutions follows the chain as printed.

These results are taken from patent US20240301067A1 (WUXI BIOLOGICS IRELAND, published 2024).

The labels stand for the following.
T1: Mouse PD-1 extracellular domain, hFc tag (mouse, UniProt Q02242 25-169)
T1 construct: extracellular domain; also called mPro1.ECD.hFc; not shown: human Fc tag at C-terminus
T1 sequence (looked up): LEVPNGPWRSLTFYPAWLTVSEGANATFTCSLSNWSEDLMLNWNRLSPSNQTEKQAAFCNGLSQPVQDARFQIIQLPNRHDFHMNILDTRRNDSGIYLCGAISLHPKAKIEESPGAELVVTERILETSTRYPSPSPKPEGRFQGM

B1: AP17R1-2H2-Z1 (VHH)
VHH: QVQLVESGGGVVQPGGSLRLSCAASDSIDSLVNMGWYRQAPGKQRELVALIANYITHYADFVKGRFTISRDNSKNTLYLQMNSLRAEDTAVYYCYARNIIVDYWGQGTLVTVSS
notes: also called the humanized AP17R1-2H2; not shown: his- and c-Myc-tag from vector pETbac
B2: AP17R1-2H2-Z1-R1-6E1 (VHH)
VHH: B1 VHH with L31M
notes: not shown: his- and c-Myc-tag from vector pETbac
B3: AP17R1-2H2-Z1-R1-14F3 (VHH)
VHH: B1 VHH with N53W
notes: as for B2
B4: AP17R1-2H2-Z1-R1-30D3 (VHH)
VHH: B1 VHH with V101E
notes: as for B2
B5: AP17R1-2H2-Z1-R1-29B6 (VHH)
VHH: B1 VHH with I100Y
notes: as for B2
B6: AP17R1-2H2-Z1-R1-4D8 (VHH)
VHH: B1 VHH with D29Q
notes: as for B2
B7: AP17R1-2H2-Z1-R1-27A2 (VHH)
VHH: B1 VHH with N98S
notes: as for B2
B8: AP17R1-2H2-Z1-R1-29B2 (VHH)
VHH: B1 VHH with I100R
notes: as for B2
B9: AP17R1-2H2-Z1-R1-14A1 (VHH)
VHH: B1 VHH with N53T
notes: as for B2
B10: AP17R1-2H2-Z1-R1-14B3 (VHH)
VHH: B1 VHH with N53R
notes: as for B2
B11: AP17R1-2H2-Z1-R1-4B2 (VHH)
VHH: B1 VHH with D29S
notes: as for B2
B12: AP17R1-2H2-Z1-R1-14F1 (VHH)
VHH: B1 VHH with N53Y
notes: as for B2

For one assay, the target named is T2, Human PD-1 extracellular domain, hFc tag (human, UniProt Q15116 25-170).
T2 construct: extracellular domain; also called hPro1.ECD.hFc; not shown: human Fc tag at C-terminus
T2 sequence (Q15116 25-170): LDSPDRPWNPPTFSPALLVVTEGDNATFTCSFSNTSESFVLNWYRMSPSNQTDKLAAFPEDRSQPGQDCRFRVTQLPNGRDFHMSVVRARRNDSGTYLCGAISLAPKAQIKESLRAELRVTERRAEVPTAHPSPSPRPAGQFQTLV
Briefly: SPR Biacore 8K; PD-1-hFc captured on anti-human Fc chip, VHH injected; 1:1 fit. Here is the method: (§1) To screen WBP3056 VHH antibodies from affinity maturation, koff to hPro1.ECD.hFc, mPro1.ECD.hFc and cynoPro1.ECD.hFc (AcrobioSystems) was detected by SPR assay using Biacore 8K. hPro1.ECD.hFc, mPro1.ECD.hFc or cynoPro1.ECD.hFc (AcrobioSystems) was captured on an anti-human IgG Fc antibody immobilized CM5 sensor chip. Each VHH antibody was injected over the sensor chip at a flow rate of 30 uL/min for an association phase of 120 s, followed by 150 s dissociation. The association and dissociation curve was fit to a 1:1 model using Langmuir analysis.
Take B1: the Kd worked out at 12.7 nM, the koff came to 0.00392 s⁻¹ and the kon was found to be 307000 M⁻¹ s⁻¹.
The matching figures for B2: 7.48 nM, 0.00328 s⁻¹ and 439000 M⁻¹ s⁻¹.
B3: the Kd is 2.35 nM, the koff was determined as 0.00109 s⁻¹ and the kon came out at 465000 M⁻¹ s⁻¹.
In the same order, the values of B4 are 6.79 nM, 0.00282 s⁻¹ and 416000 M⁻¹ s⁻¹.
B5 displayed a Kd of 7.01 nM, a koff of 0.00298 s⁻¹ and a kon of 425000 M⁻¹ s⁻¹.
The matching figures for B6: 9.49 nM, 0.00396 s⁻¹ and 417000 M⁻¹ s⁻¹.
The matching figures for B7: 8.56 nM, 0.00331 s⁻¹ and 387000 M⁻¹ s⁻¹.
Molecule B8 returned a Kd of 8.54 nM, a koff of 0.00347 s⁻¹ and a kon of 406000 M⁻¹ s⁻¹.
In the same order, the values of B9 are 2.06 nM, 0.00112 s⁻¹ and 543000 M⁻¹ s⁻¹.
As to B10, the Kd worked out at 5.09 nM, the koff was 0.00249 s⁻¹ and the association rate constant (kon) is 489000 M⁻¹ s⁻¹.
The matching figures for B11: 9.19 nM, 0.00413 s⁻¹ and 450000 M⁻¹ s⁻¹.
The matching figures for B12: 3.28 nM, 0.00135 s⁻¹ and 411000 M⁻¹ s⁻¹.

The target of a further assay is T1, Mouse PD-1 extracellular domain, hFc tag. The description is as above. The protocol:
as §1
B1 yielded an equilibrium dissociation constant (Kd) of 66.2 nM, a koff of 0.0136 s⁻¹ and a kon of 205000 M⁻¹ s⁻¹.
The matching figures for B2: 50.8 nM, 0.0146 s⁻¹ and 287000 M⁻¹ s⁻¹.
The matching figures for B3: 27.1 nM, 0.00732 s⁻¹ and 270000 M⁻¹ s⁻¹.
The matching figures for B4: 42.5 nM, 0.0118 s⁻¹ and 277000 M⁻¹ s⁻¹.
B5 displayed a Kd of 39.1 nM, a koff of 0.0108 s⁻¹ and a kon of 277000 M⁻¹ s⁻¹.
Take B6: binding was put at a Kd of 33.7 nM, the koff was determined as 0.00955 s⁻¹ and the kon is 284000 M⁻¹ s⁻¹.
The matching figures for B7: 33.7 nM, 0.00894 s⁻¹ and 265000 M⁻¹ s⁻¹.
B8 yielded a Kd of 55.8 nM, a dissociation rate constant (koff) of 0.0148 s⁻¹ and a kon of 264000 M⁻¹ s⁻¹.
With B9, the affinity, expressed as Kd, was 12.3 nM; the koff is 0.0047 s⁻¹; the kon was found to be 381000 M⁻¹ s⁻¹.
The molecule B10 displayed a dissociation constant (Kd) of 17.3 nM, a koff of 0.00596 s⁻¹ and a kon of 344000 M⁻¹ s⁻¹.
The matching figures for B11: 34.6 nM, 0.0101 s⁻¹ and 292000 M⁻¹ s⁻¹.
In the same order, the values of B12 are 7.8 nM, 0.00218 s⁻¹ and 280000 M⁻¹ s⁻¹.

For the next assay, the target named is T3, Cynomolgus PD-1 extracellular domain, hFc tag (cynomolgus, UniProt B0LAJ3 25-170).
T3 construct: Bought; also called cynoPro1.ECD.hFc; cyno PD-1 ECD protein
T3 sequence (B0LAJ3 entry or part of it limits assumed): as the sequence (Q15116 25-170) above, with D2E, P10A, V19L, T35A, Q75R, T144A counted along it
The description is as above. The protocol: as §1
Consider B1, for which the Kd was 36.4 nM, the koff was 0.00863 s⁻¹ and the association rate constant (kon) was found to be 237000 M⁻¹ s⁻¹.
In turn, B2 returned a Kd of 22.1 nM, a koff of 0.00754 s⁻¹ and a kon of 341000 M⁻¹ s⁻¹.
B3: the Kd worked out at 7.18 nM, the koff was 0.00247 s⁻¹ and the kon amounted to 344000 M⁻¹ s⁻¹.
As for B4, the Kd is 19.2 nM, the koff is 0.00624 s⁻¹ and the kon amounted to 325000 M⁻¹ s⁻¹.
Molecule B5 came in with a Kd of 20 nM, a koff of 0.00646 s⁻¹ and a kon of 323000 M⁻¹ s⁻¹.
Molecule B6 yielded a Kd of 26 nM, a koff of 0.00833 s⁻¹ and a kon of 320000 M⁻¹ s⁻¹.
In the same order, the values of B7 are 24.6 nM, 0.00745 s⁻¹ and 302000 M⁻¹ s⁻¹.
Consider B8, for which the Kd was 25.7 nM, the koff was 0.00817 s⁻¹ and the kon was 318000 M⁻¹ s⁻¹.
The matching figures for B9: 5.04 nM, 0.00213 s⁻¹ and 424000 M⁻¹ s⁻¹.
The matching figures for B10: 13.2 nM, 0.00484 s⁻¹ and 366000 M⁻¹ s⁻¹.
With B11, the Kd turned out to be 25.5 nM, the koff turned out to be 0.00879 s⁻¹ and the on-rate (kon) was found to be 345000 M⁻¹ s⁻¹.
The matching figures for B12: 8.98 nM, 0.00277 s⁻¹ and 309000 M⁻¹ s⁻¹.

What is called Kd is the concentration at which binding is half-saturated. The low end stands for higher affinity, the high end for lower affinity. What is called koff is a measure of how fast the partners let go of each other. Lower therefore signals slow dissociation. As a reminder, the kon is a measure of how fast the partners come together. Read a low kon as slower complex formation.
